Measured values reported in publication doi:10.1101/2021.07.23.453429.
pKd: −log10 of the molar value.

Tests used:
cyclophilin D [1] = molecular target: cyclophilin D (UniProt P30405); experiment: NMR titration
cyclophilin D [2] = molecular target: cyclophilin D (UniProt P30405); experiment: SPR

Chain of cyclophilin D (P30405 43-207): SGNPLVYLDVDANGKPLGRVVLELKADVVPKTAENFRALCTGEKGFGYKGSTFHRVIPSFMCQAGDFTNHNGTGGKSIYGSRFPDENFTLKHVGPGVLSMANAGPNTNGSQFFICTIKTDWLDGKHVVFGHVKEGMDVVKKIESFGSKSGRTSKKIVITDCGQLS

p53 N-terminal domain (NTD) (domain or fragment)
residue-based KD (CypD residue G65) (cyclophilin D [1]): 4.1 μΜ
residue-based KD (CypD residue I114) (cyclophilin D [1]): 32 μΜ
residue-based KD (CypD residue S77) (cyclophilin D [1]): 6.6 μΜ
pKd (cyclophilin D [2]): 5.08

p53 NTD-DBD (domain or fragment)
pKd (cyclophilin D [2]): 5.00
